# Laboratory results as given in the nanobody polyreactivity screen of Harvey et al. (2022).
# Test: yeast display, Sf9 membrane polyspecificity reagent, FACS + sequencing; frameworks hold sequencing errors
# Outline: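 Nanobodies from a synthetic yeast display library (Saccharomyces cerevisiae BJ5465), induced 36–48 hours with galactose, were stained 1 hour at 4 °C with 10% biotinylated, detergent-solubilized Sf9 membrane reagent, enriched on streptavidin microbeads, then FACS-sorted. Anti-HA (expression) and streptavidin (reagent binding) fluorescence set low and high (top ~1%) gates. Polyreactivity labels come from the gate of origin. Genes were colony-PCR amplified, MiSeq 2 × 250 sequenced and filtered by CDR length.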
row,Sequence,polyreactivity (PSR sort gate)
1,QVQLVESGGGLDQAGGSLRLSCAASGFIFSYYTMGWYRHAPGKERELVAAIRSSGGSTYADSVKGRFTISRDNAKNTVYLQMNSLKPEDTAVYYCAAESYYPAGIRGYWGQGTQVTVSS,high polyreactivity
2,QVQLVESGGGLVQAGGSLRLSCAASGSTFLHYAMGWYRQAPGKERELVAAISFSGVRTYYADSVKGRFTISRDNAKNTVYLQMNSLKPEDTAVYYCAADGHHADYDYWGQGTQVTVSS,low polyreactivity
3,QVQLVESGGGLVQAGGRLRLSCAASGRTFIPYAMGWYRQAPGNERELVAAIRNGGSTNYADSVKGRFTISRDIAKNTVYLQMNSLKPEDTAVYYCNADLPVYVDYINGCYGYWGQGTQVTVSS,low polyreactivity
4,QVQLVESGGGLDQAGGSLRLSCAASGSIFDSYVMGWYRQAPGKERDLVAAFSRGGSTYYADSVKGRFTISRDNAQNTVYLQINSLKPEDTSVYYCAAGYRVHSPDDCYWGQGTQVTVSS,low polyreactivity
5,QVQLVESGGGLVQAGGSLRLSCAASGSTFEYNAMGWYRQAPGKERELVASSTNYADSVKGRFTISRDNAKNTVYLQMNSLIPEDTAVYYCAREQGVNRNHDYWGQGTQVTVSS,low polyreactivity
6,QVQLVESGGGLVQAGGSLRLSCAASGSIFRTNAMGWYRQAPGKERELVASISRRGGSTYYADSVKGRFTISRDNAKNTVYLQMNSLKPEDTAVYYCAAVGYYSNTLHPWWDMYYWGQGTQVTVSS,high polyreactivity
7,QVQLVESGGGLVQPGGSLRLSCAASGFIFPTNVMGWSRQAPGKEREFVASITWRGGGTYYADSVKGRFRISRDNAKNTVYVQMNSLKPEDTAVYYCAAGRSWSSYWKYDYWGQGTQVTVSS,low polyreactivity
8,QVQLVESGGGLVQAGCSLRLSCAATGFIFKRNAMGWYRQAPGKERELVAAITKSGVNSYYADSVKGRFTISRDNAKNTVYLLMNSLKPEDTAVYYCAARGNRKQAWYKYNYCGQGTQVTVSS,high polyreactivity
9,QVQLVESGGGLVQAGGSLRLSCAASGNIFFTYAMGWYIQEPGKERELVAAITSGGRTYYADSVKGRFTISRDNAKNTLHLQMNSLKPEDTAVYYCAAYYKYLGYGYWGQGTQVTVSS,high polyreactivity
10,QVQLVESGGVLVLVGGSLRLSCADSGMTFYWYTMGWYRQAPGKERELVAAITRRSARTYYADSVKGRFSISRDNAKNTVYLQMNILKPEDTAVYYCGAAGRPGGYVQRDSWGQGTQVTVSS,high polyreactivity
11,QVQLVESGGGLVQAGASLRLSCAASGRIFSGNAMGWYRQAPGKERELVAAISRGGSTDYADSVKGRFTSSRDNAKNTVYLQMNSLKPEDTAVYYCADRVNGKRRRYDYWGQGTLVTVSS,high polyreactivity
12,QVQLVESGGCLVQAGGSLRLSCSSSGFIFFYNMGWYRQAPGKERDLVADISTGGSTNYADSVKGRFTISRDNAKNTVYLQMNSLKQEDTAVYYCAAVYYNVYQYEPWYDYWGQGTQVTVSS,low polyreactivity
13,QVQLVESGGGLVQAGGSLRLSCAASGRIFGFNAMGWYRQATGKERELVAAISWRGGSTYYADSVKGRFTISRDNAKNTVYLQMNSLKPEDTAVYYCAAGRYLRSGFGEGYYWGQGTQVTVSS,high polyreactivity
14,QVQLVESGGGLVQAGGSLRLSCAASGRIISSNAMGWYRQAPGKEREFVAAISWRTGSTYYADSVKGRFTISRDNAKNTVYLQMNILKPEDTAVYYCNKRNGSYCYPYYYWGQGTQVTVSS,high polyreactivity
15,QVQLVESAGGLVQAGGSLRLSCAASGRTFGGYAMGWYRQAPGKERELVASITSGGSTYYADSVKGRFTISRDNAKNTVYLEMNSLKPEDTAVYYCAADTYFETSTRAIPSNDYWGQGTQVTVSS,low polyreactivity
16,QVHLVESGGGLVQAGGCLRLSCAASGSIVGYNTMGWYRQAPGKERALVAAISSSGTSTNYPDSVKGRFTISRDNAKNTVYLQMNSLKPDDTAVFYCNTVLRVWSRSGYDYWGQGSQVTVSS,high polyreactivity
17,QVQLVESGGGLVQAGGSLRLSCAASGSTFVGNVMGWYRQAPGKERELVATISRSGGRTYYADSVKGRFTISRDNAKNTVYLQMNSLKPEDTAVYYCAAGFVYTTASRWGGRTRYDYWGQGTQVTVSS,high polyreactivity
18,QVQLVESGGGLVQAGGSLRLSCAASGSIFYSYAMGWYRQAPGKERELVAAISTTGGSTYYADSVKGRFTISRDNAKNTVYLQMNSLKPEDTAVYYCAREQGFRGDWYDYWGQGTQVTVSS,high polyreactivity
19,QVQLVESGGGLVQAGGSLRLSCAPSGSIFPYYAMGWYRQAPGKERELVAVITTSGGRTYYADSVKGRFTISRDNAKNTVYLQMNSLKPEDTAVYYCATDVRQGSGWRYYYWGQGTQVTVSS,high polyreactivity
20,QVQLVESGGGLVQAGGSLRLSCAASGSTFEQNAMGWYRQAPGKEREFVAAITGSGGSTYYADSVKGRFTISRDNAKNTVYLQMNSLKPEDTAVYYCAADIQDGLYWWDIYDYWGQGTQVTVSS,low polyreactivity
21,QVQLVESGGGLVQAGGSLRLSCAASGSIFSSNAMGWYRQAPGKERELVAAITSSGTRTYYADSVKGRFTISRDNAKNTVYLQMNSLKPEDTAVYYCATRLRRSDHRYPYDYWGQGTQVTVSS,low polyreactivity
22,QVQLVESGGGLVQAGGSLRLSCAASGFTFGAYAMGWYRQAPGKERELVAAITGSGGNTFYADSVKGRFTISRDNAKNSVYLEMNCLKTEDTAVYYCAKTWYPWSRYGYYRRYDSWGQGTQVTVSS,low polyreactivity

row,Sequence,polyreactivity (PSR sort gate)
1,QVQLVESGGGLVQAGGSLRLSCAASGYTFSYNAMGWYRQAPGKERELVARITRGTSTYADSVKGRFTISRDNAKNTVYLQMNSLKPEDTAVYYCAARPGSGRSYTSDYWGQGSQVTVSS,high polyreactivity
2,QVQLVESGGGLVQAGGSLRLSCAASGFNTRLYAMGWYRQAPGKEREFVAAISWDGTRTYYADSVKGRFTISRDTANKTFYLQMNSLKPEDTAVSYCNARRRQWQARYDYWGQGTQITVSS,high polyreactivity
3,QVQLVESGGGLVQAGGSLRLSCAAYGITLYKYAMGWYRQAPGKERELVASISRSGGSTYYADSVKGRFTISRDNAKNTVYLEMNSLKPEDTAVYYCAKAVWWSRPAQKSYLYYYWGHGTQVTVSS,high polyreactivity
4,QVQLVESGGGLVQAGGSLRLSCAASGSTYAYAMGWYRQAPGKEREFVAAITRSGGSTYYADSVKGRFTISRDNAKITVYLQMNSLKPEDTAVYYCRGNSTSWRGSQMDYWGQGTQVTVSS,high polyreactivity
5,QVQLVESGGGLVQAGGSLRLSCAASGTTFEVNAMGWYRQAPGKERELVATITRSGGSTYYADSVKGRFTISRDNAKNTVYLQMNSLKPEDTAVYYCNALWELKWGQGTQVTVSS,low polyreactivity
6,QVQLVESGGGLVQAGGSLRLSCAASGRTFAFNAMGWYRQAPGKERELVATISWSGGSTYYADSVKGRFTISRDNAKNTVYLQMNSLKPEDTAVYYCGAEYVVYRYRLYGTVAYDYWGQGTQVTVSS,high polyreactivity
7,QVQLVESGGGLVQAGGSLRLISAASGINFTGYAMGWYRQAPGKERELVAAISYSAASTYYADSVKGRFTISRDTAKNTVYLQMNSLKPEDTAVYYCAATAPSRSYPFRYYYWGQGTQVTVSS,high polyreactivity
8,QVQLVESGGGLVQAGGSLRLSCAASGSTFKPYAMGWYRQAPGKERELVADISGRGGSTYYADSVKGRFTISRDNAKKTVYLQMNSLKPEDTAVFYCATYSSRQRKSSYYYWGQGTHVTVSS,high polyreactivity
9,QVQLVESGGGLVQAGGSLRLSCAASGSTFDIYAMGWYRQAPGKERELVAAIRGRGGSTYYADSVKGRFTISRDNAKNTVSLQMNSLKPEDTAVYYCAAQTKRQRREFGFWGQGTQVTVSS,high polyreactivity
10,QVQLVESGGGLVQAGGSLRLSCPASGFTIRRNAMGCYRQAPGKERELVAAITRGGGSTYYADSVKGRFTISRDNAKNTVYLQMNSLKPEDTAVYYCSADGYYQYESWGQGTQVTVSS,high polyreactivity
11,QVKLVESGGGLVQAGGSLRLSSDASGSIFLYNAMGWYRQAPGKERELVADISWSGGSTYYADSVKGRFTISRVNEKYTVYLQMNSLKPEDTAVYYCNAVVYWFSTSYVYTYDYWGQGTQVTVSS,high polyreactivity
12,QVQLVESGGGLVQAGGSLRISCDASGRTFYWNAMGWYRQAPGKEREFVAAITNTAVSTYYADSVKGRFTISRDNAKNTVYLQMNSLKPEATAVYYCAKSGNAGYRTYLRDYWGQGSQVTVSS,low polyreactivity
13,QVQLVESGGGLVQAGGSLRLSCAASGRIFSYNVMGWYRQAPGKERELVAAITSNDGSTYYADSVKGRFTISRDNAKNTVYLQMNSLKPEVTAVYYCNADYGPVSLKEPFRDDYWGQGNQVTVSS,low polyreactivity
14,QVQLLESGGGLVQAGGSLRLSCAASGSTFCANAMGWYRQAPGKVWELVARITYSGGSTYYADSVKGRFTISRDNAKNTVYLQMNSLKPDDTAVYFCAADLPGKFDYWGQGTQVTVSS,low polyreactivity
15,QVQLVESGGGLVQAGGSLRLSCAASGFTFSRYAMGWYRQAPGKERELVAAISKSTDSTYYADSVKGRFTISRDNAKNTVYLQMNSLKPEDTAVYYCAAVQRYKGLQDDSWGQGTQVTVSS,high polyreactivity
16,QVQLVESGGGLVQAGGSLRLSCAASGFTFIYYAMGWYRQAPGKERELVAAIRWSGGSTYYADSVKGRFTISRDNAKNTVYLQMNSLKPEDTAVYYCAARAIYKSKYDYWGQGTQVTVSS,high polyreactivity
17,QVQLVESGGGLVQAGGSLRLSCAASGITFVRYAMGWYRQAPGKERELVATITRRGGSTYYADSVKGRFTISRDNAKNTVYLQMNSLKPEDTAVYYCAADAYIWLYTDFPAYDYWGQGTHVTVSS,high polyreactivity
18,QVQLVESGGGLVQAGGSLRLSCASSGRIFLVYAMGWYRQAPGKERELVAAISYSGGRTYYADSVKGRFTISRDNAKNTVYLQMNSLKPEDTAVYYCAAKRITYYGGGRFYYWGQGTQVTVSS,high polyreactivity
19,QVQLVESGGGLVQAGGSLRLSCAASGSIFGYYAMGWYRQAPGKERELVAAIRRSGGSTYYADSVKGRFTISRDNAKNTVYLQMNSLKPEDTAVYYCAARFKSSDWHYYYWGQGTQVTVSS,high polyreactivity
20,QVQLQESGGGLVQAGGSLRLSCAASGSISADGAMGWYRQAPGKEREFAASVNWGTNTNYADSVKGRFTISRDNAKNTLYLQMNRLKPEDTAVYYCAVLPDWETRHDYWGHGTQVTVSS,low polyreactivity
21,QVQLVESGGGLVQAGGSLRLSCAASGFIFLYNTMGWYRQAPGKERELVAAISGGGGSTSYADSVKGRFTISRDNAKNTVYLQMNSLKPEDTAVYYCAKKSTYYKWSRMYWGQGTQVTVSS,high polyreactivity
